The labels stand for the following.
B1: sp¦P62995¦TRA2B_HUMAN (protein, UniProt P62995 2-288, looked up)
Transformer-2 protein homolog …: SDSGEQNYGERESRSASRSGSAHGSGKSARHTPARSRSKEDSRRSRSKSRSRSESRSRSRRSSRRHYTRSRSRSRSHRRSRSRSYSRDYRRRHSHSHSPMSTRRRHVGNRANPDPNCCLGVFGLSLYTTERDLREVFSKYGPIADVSIVYDQQSRRSRGFAFVYFENVDDAKEAKERANGMELDGRRIRVDFSITKRPHTPTPGIYMGRPTYGSSRRRDYYDRGYDRGYDDRDYYSRSYRGGGGGGGGWRAAQDRDQIYRRRSPSPYYSRGGYRSRSRSRSYSPRRY
B2: sp¦O60306¦AQR_HUMAN (protein, UniProt O60306 1-1485, looked up)
RNA helicase aquarius: MAAPAQPKKIVAPTVSQINAEFVTQLACKYWAPHIKKKSPFDIKVIEDIYEKEIVKSRFAIRKIMLLEFSQYLENYLWMNYSPEVSSKAYLMSICCMVNEKFRENVPAWEIFKKKPDHFPFFFKHILKAALAETDGEFSLHEQTVLLLFLDHCFNSLEVDLIRSQVQQLISLPMWMGLQLARLELELKKTPKLRKFWNLIKKNDEKMDPEAREQAYQERRFLSQLIQKFISVLKSVPLSEPVTMDKVHYCERFIELMIDLEALLPTRRWFNTILDDSHLLVHCYLSNLVRREEDGHLFSQLLDMLKFYTGFEINDQTGNALTENEMTTIHYDRITSLQRAAFAHFPELYDFALSNVAEVDTRESLVKFFGPLSSNTLHQVASYLCLLPTLPKNEDTTFDKEFLLELLVSRHERRISQIQQLNQMPLYPTEKIIWDENIVPTEYYSGEGCLALPKLNLQFLTLHDYLLRNFNLFRLESTYEIRQDIEDSVSRMKPWQSEYGGVVFGGWARMAQPIVAFTVVEVAKPNIGENWPTRVRADVTINLNVRDHIKDEWEGLRKHDVCFLITVRPTKPYGTKFDRRRPFIEQVGLVYVRGCEIQGMLDDKGRVIEDGPEPRPNLRGESRTFRVFLDPNQYQQDMTNTIQNGAEDVYETFNIIMRRKPKENNFKAVLETIRNLMNTDCVVPDWLHDIILGYGDPSSAHYSKMPNQIATLDFNDTFLSIEHLKASFPGHNVKVTVEDPALQIPPFRITFPVRSGKGKKRKDADVEDEDTEEAKTLIVEPHVIPNRGPYPYNQPKRNTIQFTHTQIEAIRAGMQPGLTMVVGPPGTGKTDVAVQIISNIYHNFPEQRTLIVTHSNQALNQLFEKIMALDIDERHLLRLGHGEEELETEKDFSRYGRVNYVLARRIELLEEVKRLQKSLGVPGDASYTCETAGYFFLYQVMSRWEEYISKVKNKGSTLPDVTEVSTFFPFHEYFANAPQPIFKGRSYEEDMEIAEGCFRHIKKIFTQLEEFRASELLRSGLDRSKYLLVKEAKIIAMTCTHAALKRHDLVKLGFKYDNILMEEAAQILEIETFIPLLLQNPQDGFSRLKRWIMIGDHHQLPPVIKNMAFQKYSNMEQSLFTRFVRVGVPTVDLDAQGRARASLCNLYNWRYKNLGNLPHVQLLPEFSTANAGLLYDFQLINVEDFQGVGESEPNPYFYQNLGEAEYVVALFMYMCLLGYPADKISILTTYNGQKHLIRDIINRRCGNNPLIGRPNKVTTVDRFQGQQNDYILLSLVRTRAVGHLRDVRRLVVAMSRARLGLYIFARVSLFQNCFELTPAFSQLTARPLHLHIIPTEPFPTTRKNGERPSHEVQIIKNMPQMANFVYNMYMHLIQTTHHYHQTLLQLPPAMVEEGEEVQNQETELETEEEAMTVQADIIPSPTDTSCRQETPAFQTDTTPSETGATSTPEAIPALSETTPTVVGAVSAPAEANTPQDATSAPEETK
B3: sp¦P41250¦GARS_HUMAN (protein, UniProt P41250 37-739, looked up)
Glycine--tRNA ligase: SAASCPPISLPAAASRSSMDGAGAEEVLAPLRLAVRQQGDLVRKLKEDKAPQVDVDKAVAELKARKRVLEAKELALQPKDDIVDRAKMEDTLKRRFFYDQAFAIYGGVSGLYDFGPVGCALKNNIIQTWRQHFIQEEQILEIDCTMLTPEPVLKTSGHVDKFADFMVKDVKNGECFRADHLLKAHLQKLMSDKKCSVEKKSEMESVLAQLDNYGQQELADLFVNYNVKSPITGNDLSPPVSFNLMFKTFIGPGGNMPGYLRPETAQGIFLNFKRLLEFNQGKLPFAAAQIGNSFRNEISPRSGLIRVREFTMAEIEHFVDPSEKDHPKFQNVADLHLYLYSAKAQVSGQSARKMRLGDAVEQGVINNTVLGYFIGRIYLYLTKVGISPDKLRFRQHMENEMAHYACDCWDAESKTSYGWIEIVGCADRSCYDLSCHARATKVPLVAEKPLKEPKTVNVVQFEPSKGAIGKAYKKDAKLVMEYLAICDECYITEMEMLLNEKGEFTIETEGKTFQLTKDMINVKRFQKTLYVEEVVPNVIEPSFGLGRIMYTVFEHTFHVREGDEQRTFFSFPAVVAPFKCSVLPLSQNQEFMPFVKELSEALTRHGVSHKVDDSSGSIGRRYARTDEIGVAFGVTIDFDTVNKTPHTATLRDRDSMRQIRAEISELPSIVQDLANGNITWADVEARYPLFEGQETGKKETIEE
B4: sp¦Q8N335¦GPD1L_HUMAN (protein, UniProt Q8N335 1-351, looked up)
Glycerol-3-phosphate …: MAAAPLKVCIVGSGNWGSAVAKIIGNNVKKLQKFASTVKMWVFEETVNGRKLTDIINNDHENVKYLPGHKLPENVVAMSNLSEAVQDADLLVFVIPHQFIHRICDEITGRVPKKALGITLIKGIDEGPEGLKLISDIIREKMGIDISVLMGANIANEVAAEKFCETTIGSKVMENGLLFKELLQTPNFRITVVDDADTVELCGALKNIVAVGAGFCDGLRCGDNTKAAVIRLGLMEMIAFARIFCKGQVSTATFLESCGVADLITTCYGGRNRRVAEAFARTGKTIEELEKEMLNGQKLQGPQTSAEVYRILKQKGLLDKFPLFTAVYQICYESRPVQEMLSCLQSHPEHT
B5: sp¦P43034¦LIS1_HUMAN (protein, UniProt P43034 1-410, looked up)
Platelet-activating factor …: MVLSQRQRDELNRAIADYLRSNGYEEAYSVFKKEAELDVNEELDKKYAGLLEKKWTSVIRLQKKVMELESKLNEAKEEFTSGGPLGQKRDPKEWIPRPPEKYALSGHRSPVTRVIFHPVFSVMVSASEDATIKVWDYETGDFERTLKGHTDSVQDISFDHSGKLLASCSADMTIKLWDFQGFECIRTMHGHDHNVSSVAIMPNGDHIVSASRDKTIKMWEVQTGYCVKTFTGHREWVRMVRPNQDGTLIASCSNDQTVRVWVVATKECKAELREHEHVVECISWAPESSYSSISEATGSETKKSGKPGPFLLSGSRDKTIKMWDVSTGMCLMTLVGHDNWVRGVLFHSGGKFILSCADDKTLRVWDYKNKRCMKTLNAHEHFVTSLDFHKTAPYVVTGSVDQTVKVWECR
B6: sp¦P40926¦MDHM_HUMAN (protein, UniProt P40926 25-338, looked up)
Malate dehydrogenase, …: AKVAVLGASGGIGQPLSLLLKNSPLVSRLTLYDIAHTPGVAADLSHIETKAAVKGYLGPEQLPDCLKGCDVVVIPAGVPRKPGMTRDDLFNTNATIVATLTAACAQHCPEAMICVIANPVNSTIPITAEVFKKHGVYNPNKIFGVTTLDIVRANTFVAELKGLDPARVNVPVIGGHAGKTIIPLISQCTPKVDFPQDQLTALTGRIQEAGTEVVKAKAGAGSATLSMAYAGARFVFSLVDAMNGKEGVVECSFVKSQETECTYFSTPLLLGKKGIEKNLGIGKVSSFEEKMISDAIPELKASIKKGEDFVKTLK

The values below come from article PMC8298264, “Function of cofactor Akirin2 in the regulation of gene expression in model human neutrophil-like HL60 cells” (Bioscience Reports, 2021).

This assay has as its system human HL60 cells. The experiment in a line: SWATH-MS proteomics, differential protein representation, akirin2 KO vs WT HL60 cells. The assay is classed as cell-based. The settings on record: akirin2 KO vs WT HL60 cells; sheet "Under-represented in KO". Put shortly: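 WT and akirin2 KO HL60 lysates (150 µg, n=3 biological replicates) were FASP trypsin-digested and desalted. A spectral library was built by IDA from 3 µg digests, then 5 µg per sample went to variable-window SWATH DIA over a 120-min 5–30% acetonitrile gradient. Identifications were accepted at 1% global FDR, with total-area-sum normalization.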
For B1, the “Fold Change” value is given as 0.3066 and the “Log (Fold Change)” value was -0.5134.
For B2, the “Fold Change” value came to 0.6822 and the “Log (Fold Change)” value is recorded as -0.1661.
Turning to B3, the “Fold Change” value is reported as 0.6839 and the “Log (Fold Change)” value is on record as -0.165.
B4: the “Fold Change” value amounted to 0.6832 and the “Log (Fold Change)” value was -0.1655.
In the same order, the values of B5 are 0.6845 and -0.1646.
As to B6, the “Fold Change” value came to 0.6852 and the “Log (Fold Change)” value is -0.1642.
